This assay addresses CD46 (UniProt P15529). The experiment in a line: cell-based or functional assay.

In patent publication US20140370026A1 one finds inhibition of human CMV (BADrUL131) infectivity of ARPE-19 epithelial cells (IE1 immunofluorescence) data, which are given here for one substance.

Sequence of CD46 (P15529 35-392 limits assumed): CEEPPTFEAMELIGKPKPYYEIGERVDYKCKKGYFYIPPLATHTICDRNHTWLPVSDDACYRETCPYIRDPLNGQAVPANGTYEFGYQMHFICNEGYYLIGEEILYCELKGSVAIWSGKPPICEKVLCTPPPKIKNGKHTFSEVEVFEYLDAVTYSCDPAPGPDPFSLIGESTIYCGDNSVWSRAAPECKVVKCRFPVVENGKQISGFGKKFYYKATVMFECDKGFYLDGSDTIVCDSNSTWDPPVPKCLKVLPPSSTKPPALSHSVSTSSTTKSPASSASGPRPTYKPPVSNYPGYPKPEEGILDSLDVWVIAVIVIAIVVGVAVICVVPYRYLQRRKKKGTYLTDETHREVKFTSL

For the substance “anti-CD46 antibody J4.48 (Chemicon International)”, the inhibition of human CMV (BADrUL131) infectivity of ARPE-19 epithelial cells (IE1 immunofluorescence) stood at 77%.
